Laboratory results taken from patent US20120245104A1, “NOVEL RETRO-INVERSO LEPTIN PEPTIDE ANTAGONISTS” (priority 2011, published 2012).
Where no end group is shown, it is not given here. [ ]: non-standard residue; d: D form.

T1: leptin receptor (ObR) (UniProt P48357 22-1165, limits assumed)
T1 sequence (looked up): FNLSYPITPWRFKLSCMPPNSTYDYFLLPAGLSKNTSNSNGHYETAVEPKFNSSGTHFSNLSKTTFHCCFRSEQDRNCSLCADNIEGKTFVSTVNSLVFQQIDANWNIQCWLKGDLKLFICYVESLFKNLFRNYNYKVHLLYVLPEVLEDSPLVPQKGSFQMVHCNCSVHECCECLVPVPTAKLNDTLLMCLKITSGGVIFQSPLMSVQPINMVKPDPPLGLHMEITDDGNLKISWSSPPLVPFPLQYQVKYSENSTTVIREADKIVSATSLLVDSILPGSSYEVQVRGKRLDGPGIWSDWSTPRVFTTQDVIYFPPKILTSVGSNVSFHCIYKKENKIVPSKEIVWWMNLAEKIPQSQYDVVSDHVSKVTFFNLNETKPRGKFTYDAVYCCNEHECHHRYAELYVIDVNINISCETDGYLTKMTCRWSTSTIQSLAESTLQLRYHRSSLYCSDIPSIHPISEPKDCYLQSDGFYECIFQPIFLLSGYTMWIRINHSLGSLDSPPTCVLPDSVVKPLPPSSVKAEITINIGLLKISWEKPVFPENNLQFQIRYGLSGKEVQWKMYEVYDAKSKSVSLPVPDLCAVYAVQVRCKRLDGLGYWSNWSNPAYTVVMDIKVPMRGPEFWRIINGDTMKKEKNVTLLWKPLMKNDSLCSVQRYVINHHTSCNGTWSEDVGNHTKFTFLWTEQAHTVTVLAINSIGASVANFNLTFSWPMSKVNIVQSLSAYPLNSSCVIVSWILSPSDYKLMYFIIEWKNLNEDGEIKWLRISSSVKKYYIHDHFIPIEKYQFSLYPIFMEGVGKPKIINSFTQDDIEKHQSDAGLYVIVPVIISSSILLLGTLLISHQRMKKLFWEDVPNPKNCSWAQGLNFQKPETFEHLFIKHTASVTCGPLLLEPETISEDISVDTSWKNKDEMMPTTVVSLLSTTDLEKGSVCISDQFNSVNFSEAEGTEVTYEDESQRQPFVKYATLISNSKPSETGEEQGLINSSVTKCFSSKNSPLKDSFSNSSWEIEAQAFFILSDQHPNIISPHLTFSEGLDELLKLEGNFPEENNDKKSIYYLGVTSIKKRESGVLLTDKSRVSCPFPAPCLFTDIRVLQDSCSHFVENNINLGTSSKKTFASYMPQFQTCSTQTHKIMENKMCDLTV


Experiments:
leptin receptor (ObR) [1] = target: T1, leptin receptor (ObR); experiment: cell-based or functional assay
leptin receptor (ObR) [2] = target: T1, leptin receptor (ObR); experiment: cell-based or functional assay; remark: listed apart in the source

Binder | IC50, inhibition of leptin-induced growth of MCF-7 cells (leptin receptor (ObR) [1]) [nM] | IC50 (half maximal inhibitory concentration), inhibition of leptin-induced cell growth (leptin receptor (ObR) [2]) [nM]
H-[dI][dD][dN][dI][dR][dT][dV][dI][dT][dK][dI][dL][dT][dK][dI][dD][dD][dQ][dV]-NH2 (SMILES CC[C@@H](C)[C@@H](N)C(=O)N[C@H](CC(=O)O)C(=O)N[C@H](CC(N)=O)C(=O)N[C@@H](C(=O)N[C@H](CCCNC(=N)N)C(=O)N[C@@H](C(=O)N[C@@H](C(=O)N[C@@H](C(=O)N[C@@H](C(=O)N[C@H](CCCCN)C(=O)N[C@@H](C(=O)N[C@H](CC(C)C)C(=O)N[C@@H](C(=O)N[C@H](CCCCN)C(=O)N[C@@H](C(=O)N[C@H](CC(=O)O)C(=O)N[C@H](CC(=O)O)C(=O)N[C@H](CCC(N)=O)C(=O)N[C@@H](C(N)=O)C(C)C)[C@H](C)CC)[C@H](C)O)[C@H](C)CC)[C@H](C)O)[C@H](C)CC)C(C)C)[C@H](C)O)[C@H](C)CC) [Retro-inverso LPA-1(24-6), D-I10] | 17.6 | –
H-[dI][dD][dN][dI][dR][dT][dV][dI][dT][dK][dI][dL][dT][dK][dT][dD][dD][dQ][dV]-NH2 (SMILES CC[C@@H](C)[C@@H](N)C(=O)N[C@H](CC(=O)O)C(=O)N[C@H](CC(N)=O)C(=O)N[C@@H](C(=O)N[C@H](CCCNC(=N)N)C(=O)N[C@@H](C(=O)N[C@@H](C(=O)N[C@@H](C(=O)N[C@@H](C(=O)N[C@H](CCCCN)C(=O)N[C@@H](C(=O)N[C@H](CC(C)C)C(=O)N[C@@H](C(=O)N[C@H](CCCCN)C(=O)N[C@@H](C(=O)N[C@H](CC(=O)O)C(=O)N[C@H](CC(=O)O)C(=O)N[C@H](CCC(N)=O)C(=O)N[C@@H](C(N)=O)C(C)C)[C@H](C)O)[C@H](C)O)[C@H](C)CC)[C@H](C)O)[C@H](C)CC)C(C)C)[C@H](C)O)[C@H](C)CC) [Retro-inverso LPA-1(24-6), D-T10] | 16.9 | –
H-[dV][dH][dL][dL][dD][dR][dL][dN][dE][dL][dI][dN][dS][dI][dQ][dI][dV][dN]-NH2 (SMILES CC[C@@H](C)[C@@H](NC(=O)[C@@H](CC(C)C)NC(=O)[C@@H](CCC(=O)O)NC(=O)[C@@H](CC(N)=O)NC(=O)[C@@H](CC(C)C)NC(=O)[C@@H](CCCNC(=N)N)NC(=O)[C@@H](CC(=O)O)NC(=O)[C@@H](CC(C)C)NC(=O)[C@@H](CC(C)C)NC(=O)[C@@H](Cc1c[nH]cn1)NC(=O)[C@H](N)C(C)C)C(=O)N[C@H](CC(N)=O)C(=O)N[C@H](CO)C(=O)N[C@@H](C(=O)N[C@H](CCC(N)=O)C(=O)N[C@@H](C(=O)N[C@@H](C(=O)N[C@H](CC(N)=O)C(N)=O)C(C)C)[C@H](C)CC)[C@H](C)CC) [Retro-inverso LPA-2(89-72), D-I79] | 9.7 | –
VQDDAKTLIKTIVTRINDI-NH2 [Truncated LPA-1 (6-24), T10 Ala substitution] | – | 88
H-[dV][dH][dL][dL][dD][dR][dL][dN][dE][dL][dD][dN][dS][dI][dQ][dI][dV][dN]-NH2 (SMILES CC[C@@H](C)[C@@H](NC(=O)[C@@H](CO)NC(=O)[C@@H](CC(N)=O)NC(=O)[C@@H](CC(=O)O)NC(=O)[C@@H](CC(C)C)NC(=O)[C@@H](CCC(=O)O)NC(=O)[C@@H](CC(N)=O)NC(=O)[C@@H](CC(C)C)NC(=O)[C@@H](CCCNC(=N)N)NC(=O)[C@@H](CC(=O)O)NC(=O)[C@@H](CC(C)C)NC(=O)[C@@H](CC(C)C)NC(=O)[C@@H](Cc1c[nH]cn1)NC(=O)[C@H](N)C(C)C)C(=O)N[C@H](CCC(N)=O)C(=O)N[C@@H](C(=O)N[C@@H](C(=O)N[C@H](CC(N)=O)C(N)=O)C(C)C)[C@H](C)CC) [Retro-inverso LPA-2(89-72), D-D79] | 19.4 | –
IQKVQDDTKTLIKTIVTRINDISHTQSVSSKQ-NH2 [Full-length LPA-1 (3-34)] | 39.1 | 39.1
H-[dI][dD][dN][dI][dR][dT][dV][dI][dT][dK][dI][dL][dT][dK][dL][dD][dD][dQ][dV]-NH2 (SMILES CC[C@@H](C)[C@@H](N)C(=O)N[C@H](CC(=O)O)C(=O)N[C@H](CC(N)=O)C(=O)N[C@@H](C(=O)N[C@H](CCCNC(=N)N)C(=O)N[C@@H](C(=O)N[C@@H](C(=O)N[C@@H](C(=O)N[C@@H](C(=O)N[C@H](CCCCN)C(=O)N[C@@H](C(=O)N[C@H](CC(C)C)C(=O)N[C@@H](C(=O)N[C@H](CCCCN)C(=O)N[C@H](CC(C)C)C(=O)N[C@H](CC(=O)O)C(=O)N[C@H](CC(=O)O)C(=O)N[C@H](CCC(N)=O)C(=O)N[C@@H](C(N)=O)C(C)C)[C@H](C)O)[C@H](C)CC)[C@H](C)O)[C@H](C)CC)C(C)C)[C@H](C)O)[C@H](C)CC) [Retro-inverso LPA-1(24-6), D-L10] | 11.8 | –
H-[dI][dD][dN][dI][dR][dT][dV][dI][dT][dK][dI][dL][dT][dK][dV][dD][dD][dQ][dV]-NH2 (SMILES CC[C@@H](C)[C@@H](N)C(=O)N[C@H](CC(=O)O)C(=O)N[C@H](CC(N)=O)C(=O)N[C@@H](C(=O)N[C@H](CCCNC(=N)N)C(=O)N[C@@H](C(=O)N[C@@H](C(=O)N[C@@H](C(=O)N[C@@H](C(=O)N[C@H](CCCCN)C(=O)N[C@@H](C(=O)N[C@H](CC(C)C)C(=O)N[C@@H](C(=O)N[C@H](CCCCN)C(=O)N[C@@H](C(=O)N[C@H](CC(=O)O)C(=O)N[C@H](CC(=O)O)C(=O)N[C@H](CCC(N)=O)C(=O)N[C@@H](C(N)=O)C(C)C)C(C)C)[C@H](C)O)[C@H](C)CC)[C@H](C)O)[C@H](C)CC)C(C)C)[C@H](C)O)[C@H](C)CC) [Retro-inverso LPA-1(24-6), D-V10] | 17.4 | –
H-[dV][dH][dL][dL][dD][dR][dL][dN][dE][dL][dL][dN][dS][dI][dQ][dI][dV][dN]-NH2 (SMILES CC[C@@H](C)[C@@H](NC(=O)[C@@H](CO)NC(=O)[C@@H](CC(N)=O)NC(=O)[C@@H](CC(C)C)NC(=O)[C@@H](CC(C)C)NC(=O)[C@@H](CCC(=O)O)NC(=O)[C@@H](CC(N)=O)NC(=O)[C@@H](CC(C)C)NC(=O)[C@@H](CCCNC(=N)N)NC(=O)[C@@H](CC(=O)O)NC(=O)[C@@H](CC(C)C)NC(=O)[C@@H](CC(C)C)NC(=O)[C@@H](Cc1c[nH]cn1)NC(=O)[C@H](N)C(C)C)C(=O)N[C@H](CCC(N)=O)C(=O)N[C@@H](C(=O)N[C@@H](C(=O)N[C@H](CC(N)=O)C(N)=O)C(C)C)[C@H](C)CC) [Retro-inverso LPA-2(89-72), D-L79] | 18.7 | –
H-[dV][dH][dL][dL][dD][dR][dL][dN][dE][dL][dV][dN][dS][dI][dQ][dI][dV][dN]-NH2 (SMILES CC[C@@H](C)[C@@H](NC(=O)[C@@H](CO)NC(=O)[C@@H](CC(N)=O)NC(=O)[C@H](NC(=O)[C@@H](CC(C)C)NC(=O)[C@@H](CCC(=O)O)NC(=O)[C@@H](CC(N)=O)NC(=O)[C@@H](CC(C)C)NC(=O)[C@@H](CCCNC(=N)N)NC(=O)[C@@H](CC(=O)O)NC(=O)[C@@H](CC(C)C)NC(=O)[C@@H](CC(C)C)NC(=O)[C@@H](Cc1c[nH]cn1)NC(=O)[C@H](N)C(C)C)C(C)C)C(=O)N[C@H](CCC(N)=O)C(=O)N[C@@H](C(=O)N[C@@H](C(=O)N[C@H](CC(N)=O)C(N)=O)C(C)C)[C@H](C)CC) [Retro-inverso LPA-2(89-72), D-V79] | 13.6 | –

Now from value to binder:

IC50, inhibition of leptin-induced growth of MCF-7 cells (leptin receptor (ObR) [1]) [nM] | IC50 (half maximal inhibitory concentration), inhibition of leptin-induced cell growth (leptin receptor (ObR) [2]) [nM] | Binder
– | 16 | NVIQISNLLENLRDLLHV-NH2 [Truncated LPA-2 (72-89), D79 Leu substitution]
– | 15.6 | NVIQISNVLENLRDLLHV-NH2 [Truncated LPA-2 (72-89), D79 Val substitution]
– | 21 | VQDDIKTLIKTIVTRINDI-NH2 [Truncated LPA-1 (6-24), T10 Ile substitution]
– | 20.7 | VQDDVKTLIKTIVTRINDI-NH2 [Truncated LPA-1 (6-24), T10 Val substitution]
– | 54 | NVIQISNALENLRDLLHV-NH2 [Truncated LPA-2 (72-89), D79 Ala substitution]
– | 16 | NVIQISNILENLRDLLHV-NH2 [Truncated LPA-2 (72-89), D79 Ile substitution]
